Test results reported in article PMC2914609 (Nanomedicine (London, England), 2010).

Molecular target: the molecule itself
Assay: SEC

B1: Phage fusion 55-mer coat protein (pVIII coat fusion protein bearing the MCF-7-specific peptide DMPGTVLP) (designed binder)
chain: ADMPGTVLPDPAKAAFDSLQASATEYIGYAWAMVVVIVGATIGIKLFKKFTSKAS
In the case of B1, the “stoichiometry N” value is reported as 8.
